Assay results: patent US20220213163A1

Biological target: IL-2 receptor (IL-2R) on CTLL-2 cells
Experiment: cell-based or functional assay

mean effective dose (ED50), CTLL-2 proliferation (MTT assay): 0.34 ng/mL
Substance: Proleukin (recombinant human IL-2, Novartis Pharma GmbH; the Aldesleukin drug employed in the clinic) (from UniProt P60568 22-153) (ligand)
